Assay results reported in patent US20120269822A1 (published 2012).

Key:
[1] = biological target: T1, BoNT/A Lc448, truncated botulinum neurotoxin serotype A light chain containing residues 1-448 (Clostridium botulinum, UniProt P0DPI0 1-448); experiment: flow cytometry, yeast-displayed VHH titrated with soluble BoNT/A Lc448
T1 construct: range 1-448

[2] = biological target: T1, BoNT/A Lc448, truncated botulinum …; experiment: KinExA; calculated as KD × kon
[3] = biological target: T1, BoNT/A Lc448, truncated botulinum …; experiment: KinExA flow fluorimetry, solution kinetics, purified Aa1 VHH and BoNT/A Lc448
[4] = biological target: T1, BoNT/A Lc448, truncated botulinum …; experiment: KinExA flow fluorimetry, solution equilibrium, purified Aa1 VHH and BoNT/A Lc448
[5] = biological target: T1, BoNT/A Lc448, truncated botulinum …

T1 sequence (P0DPI0 1-448 limits assumed): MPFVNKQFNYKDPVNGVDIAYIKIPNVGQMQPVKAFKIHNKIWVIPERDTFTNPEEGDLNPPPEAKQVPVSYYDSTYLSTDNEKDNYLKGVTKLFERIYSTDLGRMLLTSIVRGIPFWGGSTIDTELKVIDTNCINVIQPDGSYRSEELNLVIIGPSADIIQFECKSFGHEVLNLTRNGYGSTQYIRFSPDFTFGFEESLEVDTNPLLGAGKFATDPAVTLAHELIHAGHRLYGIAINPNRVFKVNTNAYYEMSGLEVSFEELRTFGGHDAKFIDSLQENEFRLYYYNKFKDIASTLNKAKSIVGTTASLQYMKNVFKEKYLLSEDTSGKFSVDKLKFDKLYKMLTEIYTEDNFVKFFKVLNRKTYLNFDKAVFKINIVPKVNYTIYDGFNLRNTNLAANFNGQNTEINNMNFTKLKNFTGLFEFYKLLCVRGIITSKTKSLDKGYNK

Binder | Kd [1] [nM] | also measured
Aa9 VHH (VHH) VHH: QVQLVESGGGMVQPGGSLRLSCKGSGSVFMFYDMGWYRQAPGNQRELVAVMGPGGNTNYADAVKGRFTVARNIDEDTVSLLMTNLEPEDTAVYYCAADFDTPWGASGRYDYWGQGTQVTVSS | 4.08 | –
Aa11 VHH (VHH) VHH: QVQLVESGGGLVQAGGSLRLSCAASGRTFSSYAMGWFRQAPGKEREFVAAISWSGGSTYYADSVKGRFTISRDDARNTVTLLMNSLKPEDTAVYFCNAWSLEEQYWGQGTQVTVSS | 76.1 | –
A21 VHH (VHH) VHH: QVQLVESGGGVVQAGGSLRLSCVASGFTIDDYPVAWFRQAPGKEREAVSCIGNRGGTTYYADSVKGRFSISRDDAKDTVYLQMNNLKSEDTAVYYCVKDLGSVGPGAEYDYWGQGTLVTVSS | 60.7 | –
Aa8 VHH (VHH) VHH: AVQLVESGGGLVQAGDSLRLSCTLSGGTFRHYAMSWFRQAPGKERVFVARIDYDGAMKYYADSVKGRFTISRDNAKNTMYLQMNSLKPEDTAVYYCNAHWDYGLGPEWDYWGQGTLVTVSS | 112 | –
A23 VHH (VHH) VHH: AVQLVESGGGAVSPGGSLKLSCTASGLAFNGGAMGSEHRLTAGAMGWFRQAPGKDREFVAAIHPRTNDTYYSGTLEDRFTISIDDAKMTVYLQADSLRLEDTAVYSCAADEDVTPRGMGVIPYAEYWGQGTQVTVSS | 16.9 | –
A26 VHH (VHH) VHH: DVQLVESGGGLVQPGGSLRLSCVVSGLTSTEYAIGWFRQAPGKEREGVACLVVSGHNSGRTHYSAAVKGRFTVSQDDATNTAILHMDNLQPKDTAVYYCAAEVSSGQPAVTTFWEDMYDYWGQGTQVTVSS | 8.7 | –
Aa1 VHH (VHH) VHH: AVQLVDSGGGTLQAGKSLRLSCAISGLAFDGGAMGSEHRLTAGAMGWFRQAPGKDREFVAAISPRTDETYYAESLEGRFSVSRDAAATMVFLEADNVRLDDTASYYCAADEDVTPRVMGVIPHADHWGQGTLVTVSS | 0.03 | koff [2]: 0.00666 s⁻¹; kon [3]: 4.39e+07 M⁻¹ s⁻¹; Kd [4]: 0.147 nM; IC50 (read off the curve) [5]: ~0.1 nM
Aa6 VHH (VHH) VHH: AVQLVESGGGLVASGGSLRLSCAASDFKFSDYWMHWIRQAPGKEREFVASIGWNGEITDYEESIEGRFAISRDNNKYTLYLEMRDLIPEDTGLYYCAASSDYRWSRQPFEFENWGQGTQVTVSS | 0.52 | –
A19 VHH (VHH) VHH: EVQLVESGGGLVQPGGSLRLSCAASGFTFSGSAMSWVRQTPGKGLEWVSFISRSGSVTEYADSVKGRFTIARDNAPNTVYLQMNSLKPEDTAVYYCTADSYVDYEDDRLKWHHSWGQGTQVTVSS | 4.65 | –
